Measurements from US20240287164A1, “ANTIBODIES SPECIFIC TO NELL2 AND METHODS OF USE” (BOARD OF REGENTS, THE UNIVERSITY OF TEXAS SYSTEM, priority 2021, published 2024).
“Also recorded” adds a separate entry of the source.

Legend:
[1] = tested on: BAF complexes; assay: Actin in BAF complexes (immunoprecipitation, phalloidin dot blot and phalloidin pull-down); assay type: cell-based; conditions: A-673 cell nuclear extract
Procedure: Immunoprecipitation. Immunoprecipitation was performed (Shiio, Y., and Eisenman, R. N. (2003) Histone sumoylation is associated with transcriptional repression. Proc Natl Acad Sci USA). The following antibodies were used: rabbit monoclonal anti-BRG1 (ab110641, Abcam), rabbit monoclonal anti-BAF57 (33360, Cell Signaling Technologies), and mouse monoclonal anti-FLAG M2 (F1804, MilliporeSigma).
Phalloidin dot blot assays. The BAF complexes were immuno-purified from nuclear extract using anti-BRG1 or anti-BAF57, (for endogenous BAF) or anti-FLAG antibody (for FLAG-BRG1-containing BAF) and were spotted onto a nitrocellulose membrane (sample amount normalized by cell number). The membrane was allowed to dry at room temperature for 30 minutes. The membrane was rinsed with TBST (150 mM NaCl, 20 mM Tris, pH7.4, 0.05% Tween-20), blocked with 5% BSA in TBST, and incubated with Biotin-XX Phalloidin (Biotium) either overnight at 4° C. or for two hours at room temperature followed by three washes with TBST. The membrane was incubated with High Sensitivity Streptavidin-HRP (21130, Pierce/Thermo Fisher) for one hour and was washed three times with TBST, followed by detection with ECL reagent.

[2] = tested on: A-673 and EW8 cells; assay: Proliferation of NELL2- or Robo3-silenced Ewing sarcoma cells (IncuCyte); assay type: cell-based, human; conditions: A-673 cells transfected with NELL2 siRNAs, recombinant NELL2 250 ng/ml
Procedure: Transfection and viral infection. Calcium phosphate co-precipitation was used for transfection of 293T cells. Lentiviruses were prepared by transfection in 293T cells following System Biosciences' protocol, and the cells infected with lentiviruses were selected with 2 μg/mL puromycin for 48 hours. The target sequences for shRNAs are as follows: FLI1 C-terminus shRNA, […] (SEQ ID NO: 20); luciferase shRNA, […] (SEQ ID NO: 21); NELL2 shRNA-1, […] (SEQ ID NO: 22); and NELL2 shRNA-2, […] (SEQ ID NO: 23). The following siRNAs were used: human NELL2 siRNA SMARTpool (M-012185-00); Dharmacon), human Robo3 siRNA SMARTpool (M-026504-00; Dharmacon), human Robo3 siRNAs NM_022370 (SASI_Hs01_00099511, SASI_Hs01_00099512, SASI_Hs01_00099513, SASI_Hs01_00099514, SASI_Hs01_00099515 and SASI_Hs01_00099516; MilliporeSigma), human cdc42 siRNA SMARTpool (M-005057-01; Dharmacon), human CD133 siRNA SMARTpool (M-010630-01; Dharmacon), human srGAP1 siRNA SMARTpool (M-026974-00; Dharmacon), srGAP2 siRNA SMARTpool (M-021531-03; Dharmacon), human caveolin-1 siRNA SMARTpool (M-003467-01; Dharmacon), human GDF6 siRNA SMARTpool (M-0330055-01; Dharmacon), and Non-Targeting siRNA Pool #2 (D-0012Jun. 14, 2005; Dharmacon), siRNA transfection of cell lines was performed using Lipofectamine™ RNAiMAX Transfection Reagent (Thermo Fisher).
Cell proliferation and xenograft tumorigenicity assays. Anchorage-dependent cell proliferation was assessed by IncuCyte live-cell imaging system (Essen BioScience). The IncuCyte system monitors cell proliferation by analyzing the occupied area (% confluence) of cell images over time. At least four fields from four wells were assayed for each experimental condition. The cell seeding density was 2000 cells per well in a 96-well plate. […] Anchorage-independent cell proliferation was evaluated by soft agar colony formation assays. […] Colonies were grown for three weeks and counted. Colonies (>50 cells) were scored by randomly counting 10 fields per dish. […] Tumor growth was monitored weekly using a caliper. […]

[3] = tested on: BAF complexes; assay: BAF subunit protein levels by immunoblotting in Ewing sarcoma cells; assay type: cell-based, human
Excerpt: Immunoblotting. […] The following antibodies were used: rabbit polyclonal anti-FLI1 (ab15289, Abcam); mouse monoclonal anti-FLAG M2 (F1804, MilliporeSigma): rabbit monoclonal anti-NELL2 (ab181376, Abcam); goat polyclonal anti-PGK1 (sc-17943, Santa Cruz Biotechnology); rabbit polyclonal anti-Robo3 (LS-C345713, LSBio); goat polyclonal anti-Robo3 (PA5-18714, Thermo Fisher Scientific); mouse monoclonal anti-cdc42 (ACD03, Cytoskeleton); rabbit polyclonal anti-Rac1/2/3 (2465, Cell Signaling Technologies); rabbit polyclonal anti-Rho A (2117, Cell Signaling Technologies); goat polyclonal anti-BRG1 (A303-877A, Bethyl Laboratories); rabbit monoclonal anti-BRG1 (49360, Cell Signaling Technologies); rabbit polyclonal anti-BRM (A301-014A-T, Bethyl Laboratories); mouse monoclonal anti-ARID1A/BAF250) (sc-32761, Santa Cruz Biotechnology); rabbit polyclonal anti-BAF170 (A301-039A-T, Bethyl Laboratories); rabbit monoclonal anti-BAF155 (11956, Cell Signaling Technologies); rabbit polyclonal anti-BAF60B (A301-596A-T, Bethyl Laboratories); rabbit polyclonal anti-BAF57 (A300-810A-T, Bethyl Laboratories); rabbit polyclonal anti-BAF53A (A301-391A-T, Bethyl Laboratories); rabbit monoclonal anti-BAF47 (8745, Cell Signaling Technologies); rabbit polyclonal anti-BRD9 (A303-781A-T, Bethyl Laboratories); rabbit monoclonal anti-SS18 (21792, Cell Signaling Technologies); rabbit monoclonal anti-CD133 (64326, Cell Signaling Technologies); rabbit polyclonal anti-srGAP1 (A301-286A-T, Bethyl Laboratories); rabbit polyclonal anti-srGAP2 (GTX130797, GeneTex); mouse monoclonal anti-tubulin (DMIA, Thermo Fisher Scientific); rabbit polyclonal anti-β-actin (4967, Cell Signaling Technologies); mouse monoclonal anti-Rpb1 (2629, Cell Signaling Technologies); rabbit monoclonal anti-cdc6 (3387, Cell Signaling Technologies); rabbit monoclonal anti-caveolin-1 (3267, Cell Signaling Technologies); rabbit polyclonal anti-phospho-caveolin-1 (3251, Cell Signaling Technologies); rabbit monoclonal anti-Src (2123, Cell Signaling Technologies); rabbit monoclonal anti-phospho-Src Family (6943, Cell Signaling Technologies); and rabbit polyclonal anti-GDF6 (NBP1-91934, Novus Biologicals). The following HRP-conjugated secondary antibodies were used: goat anti-rabbit (7074) and goat anti-mouse (7076) (Cell Signaling Technologies); donkey anti-goat (A50)-201P, Bethyl Laboratories).

[4] = tested on: cdc42 and Rac; assay: GST-PAKI pull-down of active cdc42 and Rac; assay type: cell-based, human; conditions: FIG. 3D
Procedure: GST pull-down assays. The active form of cdc42, Rac, and Rho A was analyzed by pull-down of whole cell lysate with GST-PAKI (active cdc42 and Rac) and GST-RBD (active Rho A) followed by immunoblotting for cdc42, Rac, and Rho A as described (Ren, X. D., et al. (1999) EMBO J 18, 578-585).

[5] = tested on: BAF complexes; assay: Gel filtration chromatography of nuclear extract (BAF complex assembly); assay type: cell-based; conditions: A-673 cells; four-hour treatment
Procedure: Gel filtration chromatography. Nuclear extract was prepared as described (Carey, M. F., et al. (2009) Dignam and Roeder nuclear extract preparation. Cold Spring Harbor protocols 2009, pdb prot5330). The extract (5 mg) was loaded onto HiPrep 16/60 Sephacryl S-400 HR column (GE Healthcare) equilibrated with a gel filtration buffer (150 mM NaCl, 20 mM Hepes-KOH, 10 mM KCl, 1 mM MgCl2, 1 mM EDTA, 1 mM EGTA, 1 mM DTT, pH 7.5). Proteins were eluted at 1 ml/min and 1-ml fractions were collected. Every fourth fraction was concentrated and analyzed by immunoblotting.

[6] = tested on: CD133^low population; assay: Proliferation of sorted CD133low population (IncuCyte); assay type: cell-based, human; conditions: FIG. 5A
Procedure: Cell proliferation and xenograft tumorigenicity assays. Anchorage-dependent cell proliferation was assessed by IncuCyte live-cell imaging system (Essen BioScience). The IncuCyte system monitors cell proliferation by analyzing the occupied area (% confluence) of cell images over time. At least four fields from four wells were assayed for each experimental condition. The cell seeding density was 2000 cells per well in a 96-well plate. For each assay, biological replicates were performed to confirm the reproducibility of results. Anchorage-independent cell proliferation was evaluated by soft agar colony formation assays. A-673 cells were infected with lentiviruses expressing shRNAs against NELL2 or scrambled shRNA and were selected with 2 μg/ml puromycin. Four days after infection, 4×10^3 cells were plated in soft agar. The soft agar cultures were composed of two layers; a base layer [4 ml in a 60-mm dish; DMEM/10% fetal bovine serum/0.6% noble agar (A5431, MilliporeSigma)/penicillin/streptomycin] and a cell layer (2 ml in a 60-mm dish; DMEM/10% fetal bovine serum/0.3% noble agar/penicillin/streptomycin). Colonies were grown for three weeks and counted. Colonies (>50 cells) were scored by randomly counting 10 fields per dish. Sphere formation assays were done (Dasgupta, A., et al. (2017) Oncotarget 8, 77292-77308) using ultra-low attachment 6-well plates (Corning: seeding density 1×10^4 cells/well) and DMEM/F-12 medium supplemented with B27, human recombinant epidermal growth factor (20 ng/ml), and basic fibroblast growth factor (20 ng/ml). For xenograft tumorigenicity assays, cells were subcutaneously injected into the flanks of SCID mice (2×10^6 cells/injection, five mice/group). Tumor growth was monitored weekly using a caliper. While it is not possible to predict the effect size, the sample size of five mice per group was chosen based on experience with xenograft experiments. Mice were randomly allocated to treatment groups. Blinding of the researcher measuring tumor size was employed.
Flow cytometry. […]

[7] = tested on: Robo3-FLAG on A-673 cell surface; assay: Robo3-FLAG cell surface staining in NELL2-silenced cells; assay type: cell-based, human; conditions: A-673 cells; FIG. 2D
Procedure: Immunofluorescence. Cells grown on coverslips were fixed with 4% paraformaldehyde for 15 minutes at room temperature, washed with PBS, and permeabilized with 0.2% pre-chilled Triton-X 100/PBS for 5 minutes. The samples were blocked with culture medium for one hour and incubated with the primary antibody for three hours followed by the secondary antibody for one hour. The following primary antibodies were used: rabbit polyclonal anti-NELL2 (NBP1-82527, Novus Biologicals); mouse monoclonal anti-FLAG M2 (F1804, MilliporeSigma); mouse monoclonal anti-CD133 AC133 (130-090-422, Miltenyi Biotec); rabbit polyclonal anti-FLI1 (ab15289, Abcam); and mouse monoclonal anti-CD99 (MS-1633-P0, Thermo Fisher Scientific). The following secondary antibodies were used: Alexa Fluor 488, goat anti-rabbit IgG (A11034, Thermo Fisher Scientific); Alexa Fluor 568, goat anti-rabbit IgG (A11036, Thermo Fisher Scientific); Alexa Fluor 488, goat anti-mouse IgM (A21042, Thermo Fisher Scientific); and Alexa Fluor 594, goat anti-mouse IgG (A11032, Thermo Fisher Scientific). Nuclei were stained with DAPI. DyLight™ 554 Phalloidin (13054, Cell Signaling Technologies) was used to visualize filopodia.

C/C1=C\[C@H](C)C[C@H](C)OC(=O)C[C@H](c2ccc(O)cc2)NC(=O)[C@@H](Cc2c(Br)[nH]c3ccccc23)N(C)C(=O)[C@H](C)NC(=O)[C@@H](C)C1 [Jasplakinolide]
BRG1 and BRM pulled down by biotin-conjugated phalloidin [1]: more BRG1 and BRM are pulled down

B1: recombinant NELL2: purified recombinant NELL2 protein added to the culture medium (protein, UniProt Q99435 22-816, looked up)
Protein kinase C-binding …: LGVDPSLQIDVLTELELGESTTGVRQVPGLHNGTKAFLFQDTPRSIKASTATAEQFFQKLRNKHEFTILVTLKQTHLNSGVILSIHHLDHRYLELESSGHRNEVRLHYRSGSHRPHTEVFPYILADDKWHKLSLAISASHLILHIDCNKIYERVVEKPSTDLPLGTTFWLGQRNNAHGYFKGIMQDVQLLVMPQGFIAQCPDLNRTCPTCNDFHGLVQKIMELQDILAKTSAKLSRAEQRMNRLDQCYCERTCTMKGTTYREFESWIDGCKNCTCLNGTIQCETLICPNPDCPLKSALAYVDGKCCKECKSICQFQGRTYFEGERNTVYSSSGVCVLYECKDQTMKLVESSGCPALDCPESHQITLSHSCCKVCKGYDFCSERHNCMENSICRNLNDRAVCSCRDGFRALREDNAYCEDIDECAEGRHYCRENTMCVNTPGSFMCICKTGYIRIDDYSCTEHDECITNQHNCDENALCFNTVGGHNCVCKPGYTGNGTTCKAFCKDGCRNGGACIAANVCACPQGFTGPSCETDIDECSDGFVQCDSRANCINLPGWYHCECRDGYHDNGMFSPSGESCEDIDECGTGRHSCANDTICFNLDGGYDCRCPHGKNCTGDCIHDGKVKHNGQIWVLENDRCSVCSCQNGFVMCRRMVCDCENPTVDLFCCPECDPRLSSQCLHQNGETLYNSGDTWVQNCQQCRCLQGEVDCWPLPCPDVECEFSILPENECCPRCVTDPCQADTIRNDITKTCLDEMNVVRFTGSSWIKHGTECTLCQCKNGHICCSVDPQCLQEL
Proliferation inhibition by NELL2 silencing, rescue by recombinant protein [2]: rescues proliferation arrest; also recorded: completely rescued
Proliferation inhibition by NELL2 silencing, rescue by recombinant protein ([2]; listed as Recombinant NELL2): able to rescue the proliferation
BAF subunit levels in NELL2 siRNA-transfected cells ([3]; A-673 and EW8 cells, recombinant NELL2 250 ng/ml, FIG. 3J): restores the protein levels of BAF subunits; also recorded: rescued
CD133 and BAF subunit protein levels in the CD133low population ([3]; four or twenty-four hours, FIG. 5B): increases CD133 and BAF subunits; also recorded: increased CD133, BRG1, BAF250A, BAF155, and BAF47
BRG1, BAF155, and BAF47 levels after NELL2 silencing in the presence of dasatinib ([3]; recombinant NELL2 250 ng/ml, dasatinib present): rescued
Activation of cdc42 and Rac by NELL2 silencing ([4]; lane 1-3): abolished
Active cdc42 and active Rac in srGAP1- and srGAP2-silenced cells ([4]; lane 4-6): not affected
Size of the BAF complexes after NELL2 silencing [5]: largely restored the size
Recombinant NELL2 concentration able to rescue the slow growth of the CD133low population [6]: ≥ 250 ng/mL
Slow growth of the CD133low population [6]: can be rescued; also recorded: rescues the slow growth
Accumulation of Robo3-FLAG on the cell surface after NELL2 silencing [7]: reversed
